Reference: publication PMC10663500

Biological target: toripalimab Fab, wild type
Assay: SPR; Carterra LSA; Fab from the ammonium sulfate precipitate of the culture supernatant immobilised on a NiHC200M chip; hPD-1 (1-1024 nM) or mPD-1-Fc (4-1024 nM) as analyte, fourfold dilution series, no regeneration; HBS-EP pH 7.4, 25 °C; medians over the spots of a construct, KD = koff/kon

Chain of mouse programmed cell death protein 1 Fc fusion protein (mPD-1-Fc), mPD-1 C60S (aa 25-167) (Q02242 25-167, stated change not applied): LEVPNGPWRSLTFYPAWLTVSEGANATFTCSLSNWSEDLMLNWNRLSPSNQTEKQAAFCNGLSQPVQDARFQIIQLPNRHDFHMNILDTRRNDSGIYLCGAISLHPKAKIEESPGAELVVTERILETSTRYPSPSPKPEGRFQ
Chain of toripalimab Fab, wild type (heavy, as listed by the source, chain 1 of 2): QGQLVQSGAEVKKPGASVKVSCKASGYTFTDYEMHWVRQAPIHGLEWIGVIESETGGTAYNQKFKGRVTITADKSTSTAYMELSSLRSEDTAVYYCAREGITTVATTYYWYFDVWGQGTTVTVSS
Chain of toripalimab Fab, wild type (light, as listed by the source, chain 2 of 2): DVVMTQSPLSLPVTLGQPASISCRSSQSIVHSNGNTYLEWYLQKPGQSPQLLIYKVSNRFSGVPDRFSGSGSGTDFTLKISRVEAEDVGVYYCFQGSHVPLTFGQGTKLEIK

## mouse programmed cell death protein 1 Fc fusion protein (mPD-1-Fc), mPD-1 C60S (aa 25-167) (from UniProt Q02242 25-167)
  Kd: 136 nM
  koff: 0.00548 s⁻¹
  kon: 40300 M⁻¹ s⁻¹
